The results in this text go back to the supplement of paper PMC7877785.

The nature of the series: self-splicing fitness, log relative to wild type (ln ratio); higher = more splicing; Tetrahymena group I intron in knt gene, E. coli kanamycin selection, DiMSum; sequences stand for … in CUCUCU…GGAGGGAAAAGUUAUCAGGCAUGCACCUGGUAGCUAGUCUUUAAACCAAUAGAUUGCAUCGGUUUAAAAGGCAAGACCGUCAAAUUGCGGGAAAGGGGUCAACAGCCGUUCAGUACCAAGUCUCAGGGGAAACUUUGAGAUGGCCUUGCAAAGGGUAUGGUAAUAAGCUGACGGACAUGGUCCUAACCACGCAGCCAAGUCCUAAGUCAACAGAUCUUCUGUUGAUAUGGAUGCAGUUCACAGACUAAAUGUCGGUCGGGGAAGAUGUAUUCUUCUCAUAAGAUAUAGUCGGACCUCUCCUUAAUGGGAGCUAGCGGAUGAAGUGAUGCAACACUGGAGCCGCUGGGAACUAAUUUGUAUGCGAAAGUAUAUUGAUUAGUUUUGGAGUACUCGUGGUCG
Summed up: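 The eight P1ex-region nucleotides of an intron in the knt kanamycin-resistance gene on pET-22b(+) were all randomised and the library put into E. coli BL21(DE3). Six replicate transformations were grown overnight at 37°C or 30°C on LB agar with or without 25 μg/mL kanamycin, together with 100 μg/mL carbenicillin, 50 μM IPTG and 0.2% rhamnose. Colonies were pooled and amplicon-sequenced on an Illumina HiSeq 2500. Fitness from DiMSum is the error-weighted combination of wild-type-normalised replicate fold changes, kanamycin over none.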

± gives the uncertainty stated by the source.

As to AUAAAGCAAUAUUACGCGCA, the “self-splicing fitness (ln)” value (30 °C) amounted to 0.0901 ± 0.058 and the “self-splicing fitness (ln)” value (37 °C) is -0.398 ± 0.075.
For ACCCAGCAAUAUUACGACAG the same measures were -3.36 ± 0.12 and -1.67 ± 0.11.
For the sequence GCUAAGCAAUAUUACGUGCU, the “self-splicing fitness (ln)” value reads like this: (30 °C) -2.4 ± 0.14; (37 °C) -2.13 ± 0.25.
For ACCAAGCAAUAUUACGCCGG the same measures were -2.33 ± 0.13 and -0.125 ± 0.13.
For UCAUAGCAAUAUUACGGGCA the same measures were -1.29 ± 0.11 and -0.42 ± 0.1.
On the same counts, the results for UUUUAGCAAUAUUACGUGUU are -4.5 ± 0.46 and -3.09 ± 0.24.
In the case of GUACAGCAAUAUUACGGUGG, the “self-splicing fitness (ln)” value runs as follows: (30 °C) -2.22 ± 0.1; (37 °C) -1.63 ± 0.11.
For UUCUAGCAAUAUUACGCGUG the same measures were -2.22 ± 0.12 and -0.708 ± 0.1.
For CAGAAGCAAUAUUACGUUGG the same measures were -2.15 ± 0.11 and -0.698 ± 0.1.
In the case of CCUAAGCAAUAUUACGCUUC, the “self-splicing fitness (ln)” value (30 °C) is -3.16 ± 0.28.
For the sequence CACCAGCAAUAUUACGCAAC, the “self-splicing fitness (ln)” value by setting is: (30 °C) -2.68 ± 0.48; (37 °C) -2.85 ± 0.28.
On the same counts, the results for UUCCAGCAAUAUUACGGGUU are -2.05 ± 0.1 and -1.39 ± 0.13.
On the same counts, the results for CAUGAGCAAUAUUACGUCAA are -4.04 ± 0.33 and -2.64 ± 0.33.
For UCCAAGCAAUAUUACGGUGC the same measures were -3.58 ± 0.14 and -2.44 ± 0.12.
For the sequence CAUCAGCAAUAUUACGAUAA, the “self-splicing fitness (ln)” value (30 °C) is -1.46 ± 0.092 and the “self-splicing fitness (ln)” value (37 °C) was -0.079 ± 0.088.
For AAUCAGCAAUAUUACGCGGA the same measures were -0.694 ± 0.076 and -0.555 ± 0.079.
On the same counts, the results for UAGUAGCAAUAUUACGGCUC are -1.01 ± 0.098 and 0.206 ± 0.14.
For UAGGAGCAAUAUUACGGCAG the same measures were -3.1 ± 0.37 and -0.425 ± 0.25.
As to UGCUAGCAAUAUUACGGUCG, the “self-splicing fitness (ln)” value is 0.0903 ± 0.098 (30 °C) and 0.362 ± 0.14 (37 °C).
For UGGUAGCAAUAUUACGGAAC, the “self-splicing fitness (ln)” value (37 °C) is -0.88 ± 0.24.
In the case of GUUGAGCAAUAUUACGGCUG, the “self-splicing fitness (ln)” value is -1.41 ± 0.11 (30 °C) and -0.467 ± 0.14 (37 °C).
For CCGGAGCAAUAUUACGCGCG the same measures were -2.44 ± 0.2 and -0.558 ± 0.22.
On the same counts, the results for CCAUAGCAAUAUUACGGCAU are -4.02 ± 0.24 and -1.78 ± 0.2.
Consider CUCAAGCAAUAUUACGUACG, for which the “self-splicing fitness (ln)” value is, setting by setting: (30 °C) -1.02 ± 0.065; (37 °C) -0.705 ± 0.088.
On the same counts, the results for CAUAAGCAAUAUUACGUCUU are -3.71 ± 0.17 and -2.41 ± 0.19.
For AGGAAGCAAUAUUACGCUCG the same measures were -0.643 ± 0.16 and -0.865 ± 0.21.
For CCGCAGCAAUAUUACGUGGA the same measures were -3.51 ± 0.23 and -2.43 ± 0.22.
As for CUUCAGCAAUAUUACGUAUC, the “self-splicing fitness (ln)” value (30 °C) is -4.15 ± 0.27 and the “self-splicing fitness (ln)” value (37 °C) is -2.48 ± 0.23.
On the same counts, the results for GGAUAGCAAUAUUACGACAC are -0.106 ± 0.11 and 0.407 ± 0.14.
On the same counts, the results for GAAAAGCAAUAUUACGAGCG are -0.699 ± 0.14 and -0.579 ± 0.15.
As for GAGAAGCAAUAUUACGCCAC, the “self-splicing fitness (ln)” value (37 °C) is -0.779 ± 0.37.
In the case of AUUUAGCAAUAUUACGGAGU, the “self-splicing fitness (ln)” value reads like this: (30 °C) -2.92 ± 0.27; (37 °C) -2.29 ± 0.27.
On the same counts, the results for UCAUAGCAAUAUUACGGCCU are -3.03 ± 0.17 and -2.48 ± 0.31.
For AAAGAGCAAUAUUACGGCCA the same measures were -3.01 ± 0.31 and -2.5 ± 0.29.
On the same counts, the results for CAUUAGCAAUAUUACGUAAC are -3.01 ± 0.26 and -2.14 ± 0.25.
For the sequence AGCAAGCAAUAUUACGUCCA, the “self-splicing fitness (ln)” value (30 °C) was -1.62 ± 0.12 and the “self-splicing fitness (ln)” value (37 °C) amounted to 0.0058 ± 0.17.
Consider UCGGAGCAAUAUUACGGAUC, for which, under “30 °C”, the “self-splicing fitness (ln)” value was -3.21 ± 0.43.
Take UUAAAGCAAUAUUACGCUGA: the “self-splicing fitness (ln)” value is -0.633 ± 0.098 (30 °C) and -0.46 ± 0.14 (37 °C).
For CUCGAGCAAUAUUACGUUUA the same measures were -3.22 ± 0.41 and -3.05 ± 0.4.
